The source of these data is patent publication US20240216432A1 (HEMOGENYX PHARMACEUTICALS, published 2024).

Several values for one entry are separate records, joined by “and”; a condition that tells them apart may be missing. Equal values may be shown once.

The target in assay [1] is T1, FLT3 (Fms Related Receptor Tyrosine Kinase 3) (human, UniProt P36888 27-993).
T1 construct: whole, on cells; The target is endogenous FLT3 on human leukemia cell lines; also called human FLT3; FLK2
The experiment in a line: flow cytometry on REH cells, anti-human IgG Fc Alexa Fluor 488 detection, with or without 10 nM FLT3L pre-incubation. From the text: Cells were then stained with various concentrations of the chimeric monoclonal antibody prepared in flow buffer. Cells were washed five times with flow buffer and stained with anti-human IgG Fc antibody conjugated to Alexa Fluor 488 (Jackson Immunoresearch Laboratories, 109-545-008). Cells were stained with 7-AAD (7-AAD Viability Staining Solution, Biolegend 420404) followed by flow cytometry analysis.
(A flow cytometer gives signals particle by particle.)

The target of assay [2] is T1, FLT3 (Fms Related Receptor Tyrosine …). The experiment in a line: flow cytometry on REH cells, median fluorescence intensity against concentration, four-parameter fit, goat anti-human Fc FITC detection. As to the method: (§1) REH cells were incubated with varying concentrations (10⁻¹ to 10⁴ ng/mL) of the IgG1 or scFv molecules diluted in FACS buffer (hereinafter referred to simply as “buffer,” phosphate buffered saline (PBS) (Caisson Labs, no. PBL06)+2% BCS (GE Healthcare, no. SH30073.04)+1 mM EDTA (Invitrogen, no. 15575020)) in a final volume of 100 μL, in triplicate, for 30 minutes at 4° C. Cells were washed three times with buffer and incubated with secondary antibodies. IgG1 was detected with 1:200 goat anti-human Fc FITC (Jackson) secondary antibody and scFv was detected with anti-His FITC (1:200) secondary antibody. Secondary antibodies were incubated in 100 μL final volume in triplicate for 30 minutes at 4° C. Cells were washed once with buffer and resuspended in 200 uL buffer+1:100 7-AAD Viability Staining Solution (Biolegend, no. 420404), and analyzed by flow cytometry. Flow cytometry acquisition was performed with a Beckman Coulter CytoFLEX (Beckman Coulter), and analysis was performed with FlowJo (Treestar Inc, Ashland, OR). Plots show median fluorescence intensity of REH cells versus concentration of the primary antibody used. Variable slope (four parameters) curve was fit to the data and EC50 was used to compare binding affinities.

Assay [3] has the same target. The experiment in a line: flow cytometry on REH cells, median fluorescence intensity against concentration, four-parameter fit, anti-His FITC detection. As to the method: as §1

B1: chimeric antibody 1-18BA (mouse VL and mouse VH, human IgG) (antibody, V domains shown)
VH: QVTLKESGPGILQPSQTLSLTCSFSGFSLSTSTMGVGWIRQPSGKGLEWLLHILWNDSKYYNPALKSRLTISKDTYNKQVFLKIANVDTADTATYYCARIVYYSTYVGYFDVWGAGTTVTVSS
VL: DIQMTQSPSSLSASLGERVSLTCRASQEISGYLSWLQQKPDGTIKRLIYAASTLHSGVPKRFSGSRSGSDYSLTISRLESEDVADYYCLQYASYPFTFGSGTKLEIK
notes: these appear to be the numbers of US 20190389955; also called chimeric anti-FLT3 antibody; cAb1977-10.0
For B1, the binding result in assay [1] is listed as “binds”.

B2: fully humanized anti-human FLT3 monoclonal IgG1, clone hum 1-18BA-v1 (antibody, V domains shown)
VH: QVTLKESGPTLVKPTQTLTLTCTFSGFSLSTSTMGVGWIRQPPGKALEWLAHILWNDSKRYNPSLKSRLTITKDTSKKQVVLTMTNMDPVDTATYYCARIVYYSTYVGYFDVWGQGTTVTVSS
VL: DIQMTQSPSSLSASVGDRVTITCRASQEISGYLSWLQQKPGKAIKRLIYAASTLQSGVPSRFSGSRSGSDYTLTISSLQPEDFATYYCLQYASYPFTFGQGTKLEIK
notes: also called humanized anti-FLT3 IgG; IgG1 molecule
What is called EC50 is the concentration that produces a half-maximal response. On to B2, for which the EC50 in assay [2] is 0.0621 µg/mL and 0.41 nM.

B3: his-tagged scFv, clone hum 1-18BA-v1 (SEQ ID NO: 4 with a His tag on the C terminus) (scFv)
scFv: DIQMTQSPSSLSASVGDRVTITCRASQEISGYLSWLQQKPGKAIKRLIYAASTLQSGVPSRFSGSRSGSDYTLTISSLQPEDFATYYCLQYASYPFTFGQGTKLEIKGGGGSGGGGSGGGSGGGGSQVTLKESGPTLVKPTQTLTLTCTFSGFSLSTSTMGVGWIRQPPGKALEWLAHILWNDSKRYNPSLKSRLTITKDTSKKQVVLTMTNMDPVDTATYYCARIVYYSTYVGYFDVWGQGTTVTVSS
notes: also called humanized anti-FLT3 scFv; scFv molecule; not shown: C-terminal His tag
Consider B3, for which the EC50 in assay [3] is 0.0854 µg/mL and 3.42 nM.
